{
  "source": "patent US20200149021",
  "about": "“SYSTEM AND METHOD FOR GENOME EDITING” (INSTITUTE OF ZOOLOGY, CHINESE ACADEMY OF SCIENCES, published 2020)",
  "binders": {"B1": {"name": "crRNA31 MeCP2 site 4 ; Mouse MeCP2 site 4 (ssRNA ; dsDNA)", "RNA": "AUUUCUACUAUGGUAGAUGUGUCCAACCUUCAGGCAAGGUG", "DNA 1": "TTTCGTGTCCAACCTTCAGGCAAGGTG", "DNA 2": "CACCTTGCCTGAAGGTTGGACACGAAA"}},
  "key": {"ArCpf1": {"target": "T1, ArCpf1 (Agathobacter rectalis)", "T1 chain": "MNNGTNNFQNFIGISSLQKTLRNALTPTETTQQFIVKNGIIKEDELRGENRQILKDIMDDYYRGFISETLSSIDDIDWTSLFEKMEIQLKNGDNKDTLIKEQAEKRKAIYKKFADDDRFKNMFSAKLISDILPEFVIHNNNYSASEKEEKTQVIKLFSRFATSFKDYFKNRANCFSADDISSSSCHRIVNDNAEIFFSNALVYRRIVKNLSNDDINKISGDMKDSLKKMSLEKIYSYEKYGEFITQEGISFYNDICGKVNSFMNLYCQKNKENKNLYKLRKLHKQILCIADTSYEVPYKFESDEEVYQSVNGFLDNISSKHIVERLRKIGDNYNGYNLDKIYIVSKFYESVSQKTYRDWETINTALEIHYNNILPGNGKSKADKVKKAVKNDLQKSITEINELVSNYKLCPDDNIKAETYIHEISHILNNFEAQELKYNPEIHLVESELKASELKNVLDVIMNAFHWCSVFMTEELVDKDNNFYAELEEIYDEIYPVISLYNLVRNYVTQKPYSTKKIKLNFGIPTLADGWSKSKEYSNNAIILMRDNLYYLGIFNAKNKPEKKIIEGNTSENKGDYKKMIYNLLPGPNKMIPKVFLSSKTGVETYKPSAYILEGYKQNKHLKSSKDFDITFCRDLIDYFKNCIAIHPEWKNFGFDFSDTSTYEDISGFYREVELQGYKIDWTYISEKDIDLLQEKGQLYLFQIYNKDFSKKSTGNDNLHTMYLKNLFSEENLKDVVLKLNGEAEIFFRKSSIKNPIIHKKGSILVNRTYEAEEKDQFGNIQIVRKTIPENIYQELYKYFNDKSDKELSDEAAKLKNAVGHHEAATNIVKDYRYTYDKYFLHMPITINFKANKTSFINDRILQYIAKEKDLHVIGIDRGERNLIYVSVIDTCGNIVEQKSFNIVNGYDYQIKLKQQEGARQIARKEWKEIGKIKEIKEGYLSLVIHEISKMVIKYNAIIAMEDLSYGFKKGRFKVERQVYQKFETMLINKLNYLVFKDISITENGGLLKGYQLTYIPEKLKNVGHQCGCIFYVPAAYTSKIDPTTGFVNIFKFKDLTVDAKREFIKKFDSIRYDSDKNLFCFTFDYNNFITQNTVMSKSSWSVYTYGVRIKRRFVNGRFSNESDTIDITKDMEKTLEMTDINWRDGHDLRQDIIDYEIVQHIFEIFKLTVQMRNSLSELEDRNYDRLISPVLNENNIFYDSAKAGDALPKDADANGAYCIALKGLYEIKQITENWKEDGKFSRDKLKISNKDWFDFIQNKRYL", "assay": "cell_activity; PAM TTTC; T7EI", "conditions": "tags: NLS, HA (2A-eGFP vector)", "method": "(§1) GFP-positive cells were sorted by FACS, lysed with Buffer L+ 1/100V Protease K (Biotool) at 55° C. for 30 min, inactivated at 95° C. for 5 min, and directly used for PCR detection. Appropriate primers were designed near the Cpf1 targeting site, and the amplified product was purified using DNA Clean & Concentrator™-5 kit (ZYMO Research). 200 ng of purified PCR product was added into 1 uL of NEBuffer2 (NEB) and diluted to 10 uL with ddH₂O. Then, heterodimers were formed by re-annealing according to the previously reported method (Li, W., et al., Simultaneous generation and germline transmission of multiple gene mutations in rat using CRISPR-Cas systems. Nat Biotechnol, 2013. 31(8): p. 684-6). The reannealed product was added with 0.3 uL of T7EI endnucelease and 1/10 V NEBuffer2 (NEB), and digested at 37° C. for 1 h 30 min. Genotype analysis was performed by 3% TAE-Gel electrophoresis. Indels were calculated according to the method reported in the previous article (Cong, L., et al., Multiplex genome engineering using CRISPR/Cas systems. Science, 2013. 339(6121): p. 819-23).\n(§2) The cells were transfected with Cpf1, crRNA31, and crRNA2 plasmids, and it was confirmed by PCR and T7EI analysis that crRNA31 can increase the editing efficiency of five Cpf1s of ArCpf1, BsCpf1, HkCpf1, PrCpf1, and PxCpf1 at the site MeCP2-4 by two folds (FIG. 13B)."}, "BsCpf1": {"target": "T2, BsCpf1 (Butyrivibrio sp. NC30)", "T2 chain": "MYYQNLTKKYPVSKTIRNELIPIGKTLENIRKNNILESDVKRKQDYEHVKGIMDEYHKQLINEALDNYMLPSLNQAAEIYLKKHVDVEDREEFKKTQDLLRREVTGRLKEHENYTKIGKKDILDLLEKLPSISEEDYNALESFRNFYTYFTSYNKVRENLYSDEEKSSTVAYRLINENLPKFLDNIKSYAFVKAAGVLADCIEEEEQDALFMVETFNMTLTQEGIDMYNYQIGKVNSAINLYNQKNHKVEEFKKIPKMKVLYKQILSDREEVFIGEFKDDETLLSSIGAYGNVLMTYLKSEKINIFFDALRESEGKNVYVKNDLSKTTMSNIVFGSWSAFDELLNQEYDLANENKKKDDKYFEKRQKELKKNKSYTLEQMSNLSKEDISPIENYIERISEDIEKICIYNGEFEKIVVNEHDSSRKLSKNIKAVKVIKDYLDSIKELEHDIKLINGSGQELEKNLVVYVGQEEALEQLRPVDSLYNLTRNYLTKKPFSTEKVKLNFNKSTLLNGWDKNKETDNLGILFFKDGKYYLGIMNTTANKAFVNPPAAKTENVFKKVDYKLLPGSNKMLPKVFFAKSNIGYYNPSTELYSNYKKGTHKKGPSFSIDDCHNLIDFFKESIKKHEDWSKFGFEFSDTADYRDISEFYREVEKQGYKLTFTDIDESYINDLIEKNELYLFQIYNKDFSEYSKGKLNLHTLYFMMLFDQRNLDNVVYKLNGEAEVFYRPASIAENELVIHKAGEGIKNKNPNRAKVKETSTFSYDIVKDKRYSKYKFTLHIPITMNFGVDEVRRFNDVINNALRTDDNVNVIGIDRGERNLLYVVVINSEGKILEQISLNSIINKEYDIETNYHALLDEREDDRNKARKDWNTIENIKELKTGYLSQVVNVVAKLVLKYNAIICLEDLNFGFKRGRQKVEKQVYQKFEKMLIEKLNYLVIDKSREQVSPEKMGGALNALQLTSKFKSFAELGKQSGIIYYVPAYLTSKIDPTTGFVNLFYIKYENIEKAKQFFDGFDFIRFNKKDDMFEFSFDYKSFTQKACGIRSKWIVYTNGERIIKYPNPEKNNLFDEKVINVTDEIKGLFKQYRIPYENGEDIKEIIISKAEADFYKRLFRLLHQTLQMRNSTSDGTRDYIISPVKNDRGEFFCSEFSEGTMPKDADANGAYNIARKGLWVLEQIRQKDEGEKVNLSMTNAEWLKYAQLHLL", "assay": "cell_activity; PAM TTTC; T7EI", "conditions": "tags: HA (2A-eGFP vector)", "method": "as §1, §2"}},
  "data": [
    {"binder": "B1", "values": [
      {"measurement": "editing efficiency", "setting": "ArCpf1", "value": "~2", "unit": "fold vs crRNA2"},
      {"measurement": "editing efficiency", "setting": "BsCpf1", "value": "~2", "unit": "fold vs crRNA2"}
    ]}
  ]
}
